T1: native human Nogo-A of IMR32 neuroblastoma cells (intracellular) (human, UniProt Q9NQC3 1-1192)
T1 construct: whole, on cells; Detected inside permeabilised, fixed cells (ER-resident), not on the cell surface; also called intracellular Nogo-A; native Nogo-A
T1 sequence (looked up): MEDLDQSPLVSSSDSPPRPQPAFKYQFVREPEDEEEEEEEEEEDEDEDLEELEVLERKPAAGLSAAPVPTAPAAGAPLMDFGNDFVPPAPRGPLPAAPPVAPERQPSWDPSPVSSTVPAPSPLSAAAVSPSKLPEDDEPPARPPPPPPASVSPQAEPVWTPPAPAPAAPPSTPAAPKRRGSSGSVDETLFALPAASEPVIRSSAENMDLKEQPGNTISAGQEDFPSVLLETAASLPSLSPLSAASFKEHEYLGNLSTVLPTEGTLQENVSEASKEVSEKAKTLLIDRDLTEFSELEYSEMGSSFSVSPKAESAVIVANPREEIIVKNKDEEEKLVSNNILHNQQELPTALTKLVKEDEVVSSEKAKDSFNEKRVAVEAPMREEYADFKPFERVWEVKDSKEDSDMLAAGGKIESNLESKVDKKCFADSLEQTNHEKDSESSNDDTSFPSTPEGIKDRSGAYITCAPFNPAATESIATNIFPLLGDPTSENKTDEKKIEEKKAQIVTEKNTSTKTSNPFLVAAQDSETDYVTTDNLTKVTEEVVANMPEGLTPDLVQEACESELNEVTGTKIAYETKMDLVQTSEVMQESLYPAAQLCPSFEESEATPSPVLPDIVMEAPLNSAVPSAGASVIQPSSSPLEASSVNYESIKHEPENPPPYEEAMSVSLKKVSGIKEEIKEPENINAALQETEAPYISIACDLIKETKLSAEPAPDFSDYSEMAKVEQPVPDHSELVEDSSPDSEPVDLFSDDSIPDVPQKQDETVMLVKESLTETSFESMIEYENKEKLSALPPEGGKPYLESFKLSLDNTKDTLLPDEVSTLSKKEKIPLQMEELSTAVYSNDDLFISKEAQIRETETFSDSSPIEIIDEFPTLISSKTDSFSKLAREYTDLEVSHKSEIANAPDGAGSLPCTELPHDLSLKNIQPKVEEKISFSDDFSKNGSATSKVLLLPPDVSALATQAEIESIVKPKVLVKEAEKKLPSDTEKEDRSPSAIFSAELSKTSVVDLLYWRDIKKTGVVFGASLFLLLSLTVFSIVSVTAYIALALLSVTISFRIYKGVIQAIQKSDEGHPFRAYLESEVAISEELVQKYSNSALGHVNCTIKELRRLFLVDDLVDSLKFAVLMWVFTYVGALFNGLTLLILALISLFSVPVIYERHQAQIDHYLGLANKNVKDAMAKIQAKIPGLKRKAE

T2: peptide 7 (biotin-SGSG-VLPDIVMEAPLNSAVP) (human, N-terminal biotin)
T2 peptide: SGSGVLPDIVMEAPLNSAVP

T3: peptide 6 (biotin-SGSG-TPSPVLPDIVMEAPLN) (human, N-terminal biotin)
T3 peptide: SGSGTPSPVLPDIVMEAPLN

B1: H6L13 variant with VH CDR3 WQGY (antibody, human IgG1, kappa, V domains shown)
VH: QVQLVQSGAEVKKPGASVKVSCKASGYTFTSYWMHWVRQAPGQGLEWIGNINPSNGGTNYNEKFKSRATMTRDTSTSTAYMELSSLRSEDTAVYYCELWQGYWGQGTLVTVSS
VL: DIVMTQSPLSLPVTLGQPASISCRSSKSLLYKDGKTYLNWFQQRPGQSPQLLIYLMSTRASGVPDRFSGGGSGTDFTLKISRVEAEDVGVYYCQQLVEYPLTFGQGTKLEIKR
notes: Single point variant of H6FL with L13FL
B2: H26L13 (antibody, human IgG1, kappa, V domains shown)
VH: QVQLVQSGAEVKKPGASVKVSCKASGYTFTSYWMHWVRQAPGQGLEWIGNINPSNGGTNYNEKFKSRATMTRDTSTSTAYMELSSLRSEDTAVYYCELMQGYWGQGTLVTVSS
VL: DIVMTQSPLSLPVTLGQPASISCRSSKSLLYKDGKTYLNWFQQRPGQSPQLLIYLMSTRASGVPDRFSGGGSGTDFTLKISRVEAEDVGVYYCQQLVEYPLTFGQGTKLEIKR
notes: H26 FL is H6 FL with G95M (Kabat); IgG1 (L235A, G237A) / kappa; CAMPATH-1H signal (1-19) left out; also called H6(G95M)L13; H6L13 with VH CDR3 MQGY
B3: H20L16 (antibody, human IgG1, kappa, V domains shown)
VH: QVQLVQSGAEVKKPGASVKVSCKASGYTFTSYWMHWVRQAPGQGLEWIGNINPSNGGTNYNEKFKSKATMTRDTSTSTAYMELSSLRSEDTAVYYCELGQGYWGQGTLVTVSS
VL: DIVMTQSPLSNPVTLGQPVSISCRSSKSLLYKDGKTYLNWFLQRPGQSPQLLIYLMSTRASGVPDRFSGGGSGTDFTLKISRVEAEDVGVYYCQQLVEYPLTFGQGTKLEIKR
notes: IgG1 (L235A, G237A) / kappa; CAMPATH-1H signal (1-19) left out
B4: H27L16 (antibody, human IgG1, kappa, V domains shown)
VH: QVQLVQSGAEVKKPGASVKVSCKASGYTFTSYWMHWVKQRPGQGLEWIGNINPSNGGTNYNEKFKSKATLTVDKSTSTAYMELSSLRSEDTAVYYCELMQGYWGQGTLVTVSS
VL: DIVMTQSPLSNPVTLGQPVSISCRSSKSLLYKDGKTYLNWFLQRPGQSPQLLIYLMSTRASGVPDRFSGGGSGTDFTLKISRVEAEDVGVYYCQQLVEYPLTFGQGTKLEIKR
notes: IgG1 (L235A, G237A) / kappa; CAMPATH-1H signal (1-19) left out; also called H27FL L16FL
B5: 2A10 (murine monoclonal antibody) (antibody, V domains shown)
VH: QVQLQQPGTELVKPGASVKLSCKASGYTFTSYWMHWVKQRPGQGLEWIGNINPSNGGTNYNEKFKSKATLTVDKSSSTAYMQLSSLTSEDSAVYYCELGQGYWGQGTTLTVSS
VL: DIVITQDELSNPVTSGESVSISCRSSKSLLYKDGKTYLNWFLQRPGQSPQLLIYLMSTRASGVSDRFSGSGSGTDFTLEISRVKAEDVGVYYCQQLVEYPLTFGAGTKLELK
notes: Mouse monoclonal; also called parental antibody 2A10; murine donor antibody 2A10

What was measured:
GST-human NOGO-A56 [1] = target: T4, GST-human NOGO-A56 (human); experiment: SPR (Biacore) off-rate on NOGO chip, panel of H6FL CDR H3 variants with L13FL
T4 construct: Expressed in E. coli BL21 from pGEX-6P1 and purified on glutathione-sepharose; the GST tag is part of the protein in the assays; also called GST-Nogo-A 5+6; GST Nogo-A 5 + 6

GST-human NOGO-A56 [2] = target: T4, GST-human NOGO-A56; experiment: direct ELISA on NOGO (GST-human NOGO-A56), CDR H3 variant of H6FL with L13FL, Abs490; coating concentration not given
GST-human NOGO-A56 [3] = target: T4, GST-human NOGO-A56; experiment: direct ELISA, human NOGO-A (GST-human NOGO-A56) coated at 1 ug/ml, Abs490
GST-human NOGO-A56 [4] = target: T4, GST-human NOGO-A56; experiment: SPR (Biacore), GST-human NOGO-A56 amine-coupled to CM5, antibody flowed over, 25 C
Protocol: (§1) GST-human NOGO-A56 was immobilised to a CM5 chip by primary amine coupling using the Biacore Wizard program designed for targeted immobilisation levels. The CM5 sensor surface was activated by passing a solution of 50 mM N-hydroxy-succinimide (NHS) and 200 mM N-ethyl-N′-dimethylaminopropyl carbonide (EDC). Then GST-human NOGO-A56 in sodium acetate buffer, pH5.0 or pH 4.5, was passed over the chip and immobilised. After immobilisation was complete any still activated esters were blocked by an injection of 1M ethanolamine hydrochloride, pH8.5.
(§2) The anti-NOGO mAbs were diluted down in HBS-EP (10 mM HEPES, pH 7.4, 150 mM NaCl, 3 mM EDTA, and 0.005% P-20 surfactant) for the BIAcore 3000 or HBS-EP+ (10 mM HEPES, pH 7.4, 150 mM NaCl, 3 mM EDTA, and 0.05% P-20 surfactant) in the case of the T100 and binding studies were carried out at range of defined antibody concentrations. All runs were referenced against a blanked sensor surface (one that had been activated and blocked as described earlier but had no addition of ligand). Analysis of binding was carried out using the BIAevaluation kinetic analysis software version 4.1 for the BIAcore 3000 and T100 kinetic analysis software version 1.0. […] Unless otherwise stated, the BIAcore experiments were performed at 25° C.

GST-human NOGO-A56 [5] = target: T4, GST-human NOGO-A56; experiment: direct ELISA, GST-human NOGO-A56 coated at 1.0 mcg/ml, purified antibody, OD490
Protocol: (§3) Wells were rinsed once with TBS+0.05% Tween (TBST) then incubated with 2% BSA in TBST to block non-specific binding sites at room temperature for 1 hour. Antibodies were diluted in TBST+2% BSA to 10 μg/ml and ½ dilutions made from this. Antibodies were added to wells in duplicate and incubated at room temperature for 1 hour. […] The wells were washed three times with TBST and then incubated with 100 μl OPD peroxidase substrate (Sigma) per well for 10 minutes. The colour reaction was stopped by the addition of 25 μl concentrated H₂SO₄. Optical density at 490 nm was measured using a plate reader. Background values read from wells with no antibody were subtracted.

GST-human NOGO-A56 [6] = target: T4, GST-human NOGO-A56; experiment: SPR (Biacore) off-rate ranking on GST-human NOGO-A56 chip, one experiment
Protocol: as §1
The GST-human NOGO-A56 chip was prepared as for kinetic analysis. Cell supernatants where taken directly from transient transfections of CHO-K1 cells. These were passed directly over the sensor surface and the interaction measured. A mock transfected cell supernatant was used for double referencing to remove any artefacts due to the tissue culture media. All runs were referenced against a blanked sensor surface (one that had been activated and blocked as described earlier but had no addition of ligand). Analysis of binding was carried out using the BIAevaluation kinetic analysis software version 4.1.

GST-human NOGO-A56 [7] = target: T4, GST-human NOGO-A56; experiment: SPR (Biacore), GST-human NOGO-A56 amine-coupled to CM5, antibody flowed over, 25 C; remark: listed apart in the source
Protocol: as §1, §2

[8] = target: T5, Marmoset NOGO (A56) plus GST tag (marmoset); experiment: direct ELISA on GST-NOGO-A56 from marmoset, Abs490
T5 construct: also called GST-NOGO-A56 from marmoset

GST-human NOGO-A56 [9] = target: T4, GST-human NOGO-A56; experiment: SPR (Biacore T100), reverse format: antibody captured by Protein A, GST Nogo-A 5+6 0.125-8 nM flowed over; mean (SD in brackets)
Description: Protein A was immobilised to approximately 4000RUs by primary amine and used to capture 200-300RUs of the sample antibodies. […] The values show the mean and standard deviation (in brackets) of three independent runs in duplicate. Each data set was independently analysed prior to the calculation of the mean and standard deviation.

GST-human NOGO-A56 [10] = target: T4, GST-human NOGO-A56; experiment: direct ELISA, GST-human NOGO-A56 coated at 1.0 mcg/ml, purified antibody, OD490; remark: listed apart in the source
Protocol: as §3

[11] = target: T6, Squirrel monkey NOGO (A56) plus GST tag (squirrel monkey); experiment: direct ELISA on GST-NOGO-A56 from squirrel monkey, Abs490
T6 construct: also called GST-NOGO-A56 from squirrel monkey

GST-human NOGO-A56 [12] = target: T4, GST-human NOGO-A56; experiment: SPR (Biacore), GST-human NOGO-A56 amine-coupled to CM5, antibody flowed over, 37 C
Protocol: as §1, §2

[13] = target: T1, native human Nogo-A of IMR32 …; experiment: flow cytometry on permeabilised, fixed IMR32 cells (intracellular Nogo-A), PE anti-human IgG, MFI
Protocol: In the second assay, the ability of the humanised antibodies to bind native Nogo-A was assessed using a human neuroblastoma cell line—IMR32. This cell line is characterised by high intracellular/low cell surface levels of Nogo-A protein. In an attempt to increase the binding signal, the assay was set-up to detect intracellular Nogo-A (ER-resident). IMR32 cells were permeabilised and fixed prior to staining with the anti-Nogo-A humanised antibodies. Binding of the antibodies to Nogo-A was detected using an anti-human IgG-PE labelled secondary (Sigma, #P8047).

[14] = target: T7, Rat NOGO (A56) plus GST tag (rat); experiment: direct ELISA on GST-NOGO-A56 from rat, Abs490
T7 construct: also called GST-NOGO-A56 from rat

GST-human NOGO-A56 [15] = target: T4, GST-human NOGO-A56; experiment: direct ELISA, GST-Nogo-A 5+6 coated at 1.0 mcg/ml, anti-human IgG-HRP, Abs490
Protocol: as §3

GST-human NOGO-A56 [16] = target: T4, GST-human NOGO-A56; experiment: reverse format ELISA: antibody captured on anti-human IgG, GST-Nogo-A 5+6 detected with anti-GST-HRP; the x axis is the antibody concentration
GST-human NOGO-A56 [17] = target: T4, GST-human NOGO-A56; experiment: SPR (Biacore T100), antigen amine-coupled to CM5, antibody 0.125-8 nM; mean of six runs in duplicate (SD in brackets)
Description: In the first approach, the recombinant Nogo-A was coupled to the surface of the chip and anti-Nogo-A antibodies passed over this surface. In the second approach, Protein A was used to capture the antibody onto the surface of the chip over which the recombinant GST-human Nogo-A56 was passed.
The antigen was bound to the CM5 chip by primary amine coupling. […] The values show the mean and standard deviation (in brackets) of six independent runs carried out in duplicate. Each completed data set was analysed independently prior to the calculation of mean and standard deviation.

GST-human NOGO-A56 [18] = target: T4, GST-human NOGO-A56; experiment: SPR (Biacore), GST-human NOGO-A56 amine-coupled to CM5, antibody flowed over, 25 C; remark: listed apart in the source
Protocol: as §1, §2

[19] = target: T8, Cynomolgus monkey NOGO (A56) plus GST tag (cynomolgus monkey); experiment: direct ELISA on GST-NOGO-A56 from cynomolgus, Abs490
T8 construct: also called cynomolgus Nogo-A; GST-NOGO-A56 from cynomolgus

GST-human NOGO-A56 [20] = target: T4, GST-human NOGO-A56; experiment: competition ELISA on coated GST-Nogo-A 5+6; competitor 2A10 pre-mixed, bound 2A10 detected with anti-mouse IgG-HRP
[21] = target: T2, peptide 7 (biotin-SGSG-VLPDIVMEAPLNSAVP); experiment: peptide ELISA: biotinylated 16-mer peptide on streptavidin, antibody at 5 ug/ml, kappa-chain peroxidase conjugate, Abs490
Protocol: (§4) Streptavidin at 5 μg/ml in sterile water was coated onto Nunc immunosorp plates (100 μl per well) at 37° C. overnight. The plates were rinsed 3 times with PBS containing 0.05% Tween (PBST) then blocked with 3% BSA in PBST at 4° C. overnight. The plates were washed 3 times with PBST. Peptides were then added to the wells at a concentration of approximately 10 μg/ml (diluted in 3% BSA in PBST) and incubated at room temperature for 1 hour. The plates were washed 3 times with PBST then incubated for 1 hour with anti-NOGO antibodies diluted to 5 μg/ml in 3% BSA in PBST. […] The plates were washed 3 times with PBST and then incubated with 100 μl OPD peroxidase substrate (Sigma) per well for 10 minutes. The colour reaction was stopped by the addition of 50 μl 3 molar H₂SO₄. Absorbance at 490 nm was measured using a plate reader.

[22] = target: T3, peptide 6 (biotin-SGSG-TPSPVLPDIVMEAPLN); experiment: as above
Protocol: as §4

T4 sequence (chain, as listed by the source limits assumed): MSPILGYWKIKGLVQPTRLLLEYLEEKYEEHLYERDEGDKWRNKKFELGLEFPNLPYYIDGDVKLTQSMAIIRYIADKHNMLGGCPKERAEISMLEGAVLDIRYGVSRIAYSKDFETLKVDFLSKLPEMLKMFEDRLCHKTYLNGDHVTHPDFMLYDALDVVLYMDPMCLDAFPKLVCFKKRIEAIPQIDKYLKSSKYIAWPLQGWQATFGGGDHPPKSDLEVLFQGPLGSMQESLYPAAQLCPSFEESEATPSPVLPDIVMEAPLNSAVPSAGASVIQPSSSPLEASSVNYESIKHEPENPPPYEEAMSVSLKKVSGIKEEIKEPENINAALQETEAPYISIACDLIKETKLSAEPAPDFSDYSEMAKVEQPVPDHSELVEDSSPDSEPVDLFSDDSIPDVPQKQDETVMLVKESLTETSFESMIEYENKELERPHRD
T8 sequence (chain, as listed by the source limits assumed): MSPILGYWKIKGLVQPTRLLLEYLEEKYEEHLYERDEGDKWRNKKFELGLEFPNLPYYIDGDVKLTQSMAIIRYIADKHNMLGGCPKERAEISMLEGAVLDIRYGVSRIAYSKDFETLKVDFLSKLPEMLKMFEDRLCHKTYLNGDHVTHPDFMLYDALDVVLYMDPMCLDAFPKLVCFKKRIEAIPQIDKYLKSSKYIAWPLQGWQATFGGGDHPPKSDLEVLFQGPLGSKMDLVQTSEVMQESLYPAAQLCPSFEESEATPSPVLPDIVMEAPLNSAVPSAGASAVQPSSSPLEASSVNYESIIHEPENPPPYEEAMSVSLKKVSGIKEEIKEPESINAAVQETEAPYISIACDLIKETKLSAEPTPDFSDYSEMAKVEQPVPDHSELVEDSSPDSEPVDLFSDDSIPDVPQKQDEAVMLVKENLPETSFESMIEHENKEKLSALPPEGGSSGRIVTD
T5 sequence (chain, as listed by the source limits assumed): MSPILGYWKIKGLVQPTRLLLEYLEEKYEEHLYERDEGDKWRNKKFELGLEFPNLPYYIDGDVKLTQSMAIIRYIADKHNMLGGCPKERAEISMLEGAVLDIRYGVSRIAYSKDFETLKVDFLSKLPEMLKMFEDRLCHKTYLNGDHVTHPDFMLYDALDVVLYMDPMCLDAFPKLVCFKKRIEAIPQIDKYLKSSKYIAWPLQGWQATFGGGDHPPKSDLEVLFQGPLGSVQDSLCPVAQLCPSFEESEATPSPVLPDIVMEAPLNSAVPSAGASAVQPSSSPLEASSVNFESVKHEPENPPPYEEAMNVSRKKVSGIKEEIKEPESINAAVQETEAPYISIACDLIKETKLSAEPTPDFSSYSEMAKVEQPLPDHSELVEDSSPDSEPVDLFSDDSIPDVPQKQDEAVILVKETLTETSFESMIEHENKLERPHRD
T7 sequence (chain, as listed by the source limits assumed): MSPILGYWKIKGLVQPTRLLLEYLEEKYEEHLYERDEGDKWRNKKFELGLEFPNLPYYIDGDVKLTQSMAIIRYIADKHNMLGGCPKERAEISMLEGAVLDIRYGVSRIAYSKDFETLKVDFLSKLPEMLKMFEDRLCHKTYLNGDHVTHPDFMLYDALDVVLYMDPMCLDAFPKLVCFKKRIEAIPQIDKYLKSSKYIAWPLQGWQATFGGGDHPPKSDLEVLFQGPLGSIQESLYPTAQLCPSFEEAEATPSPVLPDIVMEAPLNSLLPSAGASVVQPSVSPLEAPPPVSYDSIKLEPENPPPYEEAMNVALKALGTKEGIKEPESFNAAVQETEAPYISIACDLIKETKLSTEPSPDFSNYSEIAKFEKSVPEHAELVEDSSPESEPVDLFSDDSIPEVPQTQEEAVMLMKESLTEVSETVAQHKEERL
T6 sequence (chain, as listed by the source limits assumed): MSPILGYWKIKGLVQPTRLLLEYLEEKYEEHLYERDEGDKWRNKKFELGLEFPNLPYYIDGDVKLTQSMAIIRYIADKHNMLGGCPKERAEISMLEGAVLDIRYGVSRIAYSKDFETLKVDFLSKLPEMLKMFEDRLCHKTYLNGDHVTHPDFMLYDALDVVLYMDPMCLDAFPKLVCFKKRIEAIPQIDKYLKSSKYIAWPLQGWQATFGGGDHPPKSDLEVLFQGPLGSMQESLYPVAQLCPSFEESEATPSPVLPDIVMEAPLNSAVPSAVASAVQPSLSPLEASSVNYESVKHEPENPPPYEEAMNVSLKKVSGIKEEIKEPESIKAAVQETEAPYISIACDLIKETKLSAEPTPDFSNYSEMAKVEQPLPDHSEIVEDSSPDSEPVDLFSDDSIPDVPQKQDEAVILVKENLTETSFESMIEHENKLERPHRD

Row | Binder | koff (GST-human NOGO-A56 [1]) | EC50 (read off the curve) (GST-human NOGO-A56 [3]) | Kd (GST-human NOGO-A56 [4]) | koff (GST-human NOGO-A56 [4]) | kon (GST-human NOGO-A56 [4]) | EC50 (read off the curve) (GST-human NOGO-A56 [5]) | Kd (GST-human NOGO-A56 [9]) | EC50 (read off the curve) (GST-human NOGO-A56 [10]) | Kd (GST-human NOGO-A56 [12]) | koff (GST-human NOGO-A56 [12]) | kon (GST-human NOGO-A56 [12]) | binding result [13] | EC50 (read off the curve) (GST-human NOGO-A56 [15]) | EC50 (read off the curve) (GST-human NOGO-A56 [16]) | Kd (GST-human NOGO-A56 [17]) | Kd (GST-human NOGO-A56 [18]) | koff (GST-human NOGO-A56 [18]) | kon (GST-human NOGO-A56 [18]) | further results
1 | B1 | 0.0198 s⁻¹ |  |  |  |  |  |  |  |  |  |  |  |  |  |  |  |  |  | EC50 (read off the curve) (GST-human NOGO-A56 [2]): ~0.1 µg/mL
2 | B2 | 0.00485 s⁻¹ | ~0.03 µg/mL | 0.963 nM | 0.00311 s⁻¹ | 3.23e+06 M⁻¹ s⁻¹ | ~0.1 µg/mL |  |  |  |  |  |  |  |  |  |  |  |  | koff (GST-human NOGO-A56 [6]): 0.00431 s⁻¹; Kd (GST-human NOGO-A56 [7]): 0.87 nM; koff (GST-human NOGO-A56 [7]): 0.00288 s⁻¹; kon (GST-human NOGO-A56 [7]): 3.45e+06 M⁻¹ s⁻¹
3 | B3 |  |  |  |  |  | ~0.1 µg/mL | 0.31 nM | ~0.09 µg/mL | 1.51 nM | 0.0108 s⁻¹ | 7.17e+06 M⁻¹ s⁻¹ | binds | ~0.1 µg/mL | ~0.08 µg/mL | 1.8 nM | 1.16 nM | 0.00542 s⁻¹ | 4.69e+06 M⁻¹ s⁻¹ | EC50 (read off the curve) [8]: ~0.07 µg/mL; EC50 (read off the curve) [11]: ~0.05 µg/mL; EC50 (read off the curve) [14]: ~0.08 µg/mL; EC50 (read off the curve) [19]: ~0.09 µg/mL
4 | B4 |  | ~0.06 µg/mL | 0.194 nM | 0.00121 s⁻¹ | 6.24e+06 M⁻¹ s⁻¹ |  | 0.31 nM | ~0.06 µg/mL | 0.426 nM | 0.00306 s⁻¹ | 7.18e+06 M⁻¹ s⁻¹ | binds | ~0.04 µg/mL | ~0.1 µg/mL | 0.56 nM | 0.38 nM | 0.0015 s⁻¹ | 3.94e+06 M⁻¹ s⁻¹ | IC50 (read off the curve) (GST-human NOGO-A56 [20]): ~5 µg/mL
5 | B5 |  |  |  |  |  |  |  |  |  |  |  |  |  |  |  |  |  |  | binding result [21]: binds; binding result [22]: binds
